Square brackets hold non-standard residues; d marks the D form. Ends that are not written are not given here. Hyp = O=C(O)[C@@H]1C[C@@H](O)CN1
Target: T1, HAESA LRR ectodomain (Arabidopsis thaliana, UniProt P47735 15-621)
T1 sequence (looked up): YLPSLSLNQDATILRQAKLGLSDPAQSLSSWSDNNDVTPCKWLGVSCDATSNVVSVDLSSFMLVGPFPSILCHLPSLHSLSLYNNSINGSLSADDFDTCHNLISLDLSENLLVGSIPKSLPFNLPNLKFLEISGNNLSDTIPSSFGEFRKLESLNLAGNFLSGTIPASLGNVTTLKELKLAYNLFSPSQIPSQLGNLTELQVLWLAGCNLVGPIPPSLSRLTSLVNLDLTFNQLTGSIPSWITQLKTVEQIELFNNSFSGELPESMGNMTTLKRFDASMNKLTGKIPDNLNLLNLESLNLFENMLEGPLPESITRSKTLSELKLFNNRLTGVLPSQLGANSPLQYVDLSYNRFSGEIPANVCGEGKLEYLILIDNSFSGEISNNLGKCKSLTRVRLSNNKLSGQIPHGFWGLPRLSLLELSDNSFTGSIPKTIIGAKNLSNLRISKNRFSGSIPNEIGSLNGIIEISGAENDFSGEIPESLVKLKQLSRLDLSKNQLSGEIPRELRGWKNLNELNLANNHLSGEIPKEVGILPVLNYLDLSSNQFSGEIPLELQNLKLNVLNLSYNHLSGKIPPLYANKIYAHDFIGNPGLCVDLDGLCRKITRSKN
Assay: grating-coupled interferometry

A Kd of roughly 30 µM, a koff of roughly 2 s⁻¹ and a kon of roughly 60000 M⁻¹ s⁻¹ were found for YVPIPPSA[Hyp]SKRHN [INFLORESCENCE DEFICIENT IN ABSCISSION (IDA) peptide, Y-IDA] in this work.

Source: PMC5879659 (Proceedings of the National Academy of Sciences of the …, 2018)
